Among the data in the supplement of paper PMC10126150 are switch fluorescence ratio values, retold here.

This data set relates to ATP. Briefly: switch fluorescence ratio, 500 uM ATP over buffer (Cy3 cluster intensity, sum of 5 cycles each) (fold (ratio)); higher = stronger signal-on switching upon ATP binding; sequences stand for … in TCGTCGGCAGCGTCAGATGTGTATAAGAGACAGTTTTTTTTTTTTTTTTTTTTTTTTT…TC. The note with it: aptamer strand: ATP DNA aptamer (quencher-CACCTGGGGGAGTATTGCGGAGGAAGG + anchor), 100 nM annealed; ATP concentration: 500 uM. The method in brief:
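The fluorescence ratio divides summed target-cycle Cy3 intensity by summed buffer-cycle Cy3 intensity for each cluster and is averaged per switch-domain sequence. Cy3-labelled switching-strand clusters on a modified Illumina MiSeq flow-cell were annealed to 100 nM quencher-labelled ATP aptamer, then imaged in selection buffer and again after 15 min with 500 uM ATP at 22 °C. Five such cycles were run, with NaOH stripping and re-annealing between them, and clusters outside 100-1000 RFU were excluded.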

± gives the standard deviation of the averaged measurements.
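Further: ATP exposure 15 min at 22 °C before imaging.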

Regarding AGGGGTCGGC, the switch fluorescence ratio was found to be 0.986 ± 0.016.

Regarding TGGGTTTACG, the switch fluorescence ratio came out at 1.03 ± 0.029.

In the case of AGTGAGTCTG, the switch fluorescence ratio is 0.995 ± 0.053.

Take CTAAGGTGTT: the switch fluorescence ratio amounted to 1.325 ± 0.011.

As for ATAGTTAGGT, the switch fluorescence ratio came to 1.03 ± 0.029.

In the case of GGTTCTGTGT, the switch fluorescence ratio came out at 0.99 ± 0.012.

With GCTTAAAGGC, the switch fluorescence ratio amounted to 1.01 ± 0.03.

On to ACGATTCAAG, for which the switch fluorescence ratio is 1.02 ± 0.061.

For the sequence CAAGTAGGG, the switch fluorescence ratio was 0.956 ± 0.052.

Regarding CGTGGTTTGC, the switch fluorescence ratio was 1.03 ± 0.053.

CGAATATACG: the switch fluorescence ratio was found to be 1.04 ± 0.021.

Regarding CTTGGGGAGC, the switch fluorescence ratio was 0.982 ± 0.07.

As for TTTTTTTTTA, the switch fluorescence ratio amounted to 1.01 ± 0.022.

Take GGTTCACGGT: the switch fluorescence ratio was 0.994 ± 0.026.

TCCAGGACCA: the switch fluorescence ratio was found to be 1.03 ± 0.042.

On to TGGGTGACGG, for which the switch fluorescence ratio was 0.958 ± 0.036.

As to TTTGTGTGTA, the switch fluorescence ratio was found to be 0.9846 ± 0.0097.

Turning to TTTTGAAAAA, the switch fluorescence ratio turned out to be 1 ± 0.061.

With GCCAGATGCG, the switch fluorescence ratio is 1.05 ± 0.064.

Take CGGGTTCTCG: the switch fluorescence ratio amounted to 0.978 ± 0.025.

Consider CGTTCAGCT, for which the switch fluorescence ratio turned out to be 1.01 ± 0.035.

On to ATGGACGGTA, for which the switch fluorescence ratio came out at 1.105 ± 0.0076.

For TGACGTTATG, the switch fluorescence ratio was determined as 1 ± 0.053.

As to CGTGGGATAA, the switch fluorescence ratio came out at 1.01 ± 0.023.

For ATGCAGCATG, the switch fluorescence ratio was determined as 1.021 ± 0.0038.

In the case of AGAGGGCAGG, the switch fluorescence ratio is 0.995 ± 0.018.

With GTTGGGCCGG, the switch fluorescence ratio is 0.987 ± 0.021.

Consider TTTTTACATT, for which the switch fluorescence ratio worked out at 0.99 ± 0.032.

Take ATGGGGGCTA: the switch fluorescence ratio is 0.979 ± 0.068.

In the case of TGGAAGTGGG, the switch fluorescence ratio came out at 1.03 ± 0.042.

In the case of AGGTTAATAG, the switch fluorescence ratio amounted to 0.996 ± 0.012.

Take TAAGGAGTGC: the switch fluorescence ratio was found to be 0.955 ± 0.12.

For AAAACGGAGA, the switch fluorescence ratio was 1.02 ± 0.014.

Turning to AAGACACGC, the switch fluorescence ratio stood at 1.04 ± 0.042.

Consider TAATTTAGAA, for which the switch fluorescence ratio was determined as 0.975 ± 0.021.

On to TTGGGGACCC, for which the switch fluorescence ratio was determined as 1.03 ± 0.035.

TCTCCATTGT: the switch fluorescence ratio turned out to be 1.04 ± 0.046.

For AAGCGAGTTC, the switch fluorescence ratio came out at 0.9981 ± 0.0089.

On to AAAAAGGCTA, for which the switch fluorescence ratio worked out at 1.03 ± 0.017.

As for TCATCAGGCC, the switch fluorescence ratio turned out to be 1.02 ± 0.012.

On to AGAGTTCTCG, for which the switch fluorescence ratio turned out to be 0.978 ± 0.012.

In the case of TGAATCGGGA, the switch fluorescence ratio came to 0.99 ± 0.011.

Turning to CGTGTGTTGA, the switch fluorescence ratio came out at 1.01 ± 0.013.

AGAGTGGAAG: the switch fluorescence ratio is 0.977 ± 0.051.

As for ATGAAGGAGC, the switch fluorescence ratio stood at 0.9917 ± 0.0046.

As for TGGGTGAGCT, the switch fluorescence ratio was determined as 1.01 ± 0.036.

As to GTGTTACGGG, the switch fluorescence ratio worked out at 0.985 ± 0.016.

As for GGAGTTGCAG, the switch fluorescence ratio is 0.975 ± 0.063.

Turning to ATTCACGGCC, the switch fluorescence ratio came out at 1.06 ± 0.043.

Consider TCTGTCGGGC, for which the switch fluorescence ratio was determined as 0.994 ± 0.054.

With AATTAGACGG, the switch fluorescence ratio is 1.03 ± 0.046.

GCACCAAAAG: the switch fluorescence ratio was 0.973 ± 0.028.

For the sequence TTGAGGGGTA, the switch fluorescence ratio turned out to be 1.01 ± 0.021.

On to GATTTAATTT, for which the switch fluorescence ratio was 1.001 ± 0.0063.

Turning to GACAATGGTT, the switch fluorescence ratio turned out to be 1 ± 0.027.

Turning to TAGTGGATGG, the switch fluorescence ratio was found to be 1 ± 0.029.

For GTTTATGGTG, the switch fluorescence ratio is 0.999 ± 0.025.

As for TGGATGACGC, the switch fluorescence ratio stood at 0.96 ± 0.12.

Consider AACATAGTAG, for which the switch fluorescence ratio is 0.96446 ± 0.0004.

Take GCGACATGAT: the switch fluorescence ratio was determined as 1.025 ± 0.0011.

As for GGTTGGTTGG, the switch fluorescence ratio is 0.9769 ± 0.0012.

In the case of TGGATAGGGG, the switch fluorescence ratio stood at 1.03 ± 0.012.

As for CTAGCAACGT, the switch fluorescence ratio was determined as 1.03 ± 0.067.

Turning to CGCGGTTCTG, the switch fluorescence ratio stood at 1.01 ± 0.029.

For the sequence GAGGTAAGGT, the switch fluorescence ratio came to 1 ± 0.015.

Consider GGTATGGAGG, for which the switch fluorescence ratio is 0.988 ± 0.038.

As to ATCGGATTGG, the switch fluorescence ratio was found to be 1.03 ± 0.072.

Regarding CGGTTGGCAA, the switch fluorescence ratio amounted to 1.09 ± 0.054.

In the case of TATGATGGAA, the switch fluorescence ratio worked out at 0.966 ± 0.024.

Consider AGGAGATTCA, for which the switch fluorescence ratio was 0.959 ± 0.041.

For TTTAGTGGGC, the switch fluorescence ratio was determined as 0.9843 ± 0.0081.

As for GGATTTTGGC, the switch fluorescence ratio worked out at 0.99 ± 0.019.

With TAGTAATCTT, the switch fluorescence ratio is 1.003 ± 0.0092.

With ATGGCAAAAG, the switch fluorescence ratio worked out at 1.01 ± 0.045.

On to TTAATGATTT, for which the switch fluorescence ratio is 1 ± 0.034.

In the case of TGGCATTCGT, the switch fluorescence ratio is 0.9757 ± 0.0091.

In the case of GTGGGGAATA, the switch fluorescence ratio turned out to be 1.03 ± 0.043.

In the case of AGAAGTTAGG, the switch fluorescence ratio is 0.973 ± 0.013.

For GAAGCTAGAA, the switch fluorescence ratio came to 1.52 ± 0.3.
